Experimental data taken from US20170151339A1 (priority 2014, published 2017).
Where a SMILES comes first, the peptide text is derived from it. Bridges are numbered along the chain shown (N, C = ends). [ ]: non-standard residue; d: D form. The star is where a group is joined. X1 = COc1cc2cc(c1Cl)N(C)C(=O)[C@H](OC(=O)[C@H](C)N(C)C(=O)CCS*)[C@]1(C)O[C@H]1[C@H](C)[C@@H]1C[C@@](O)(NC(=O)O1)[C@H](OC)/C=C/C=C(\C)C2; Thr(ol) = C[C@@H](O)[C@H](N)CO

Key:
[1] = tested on: NCI-H524 (ATCC) human lung cancer cells; assay type: cell-based; conditions: for IC50: treated 2 hours, further incubated 70 hours
Procedure: Conjugates were assessed in an in vitro assay evaluating inhibition of cell proliferation. NCI-H524 (ATCC) human lung cancer cells were plated in 96 well, V-bottomed plates (Costar) at a concentration of 5,000 cells/well and 24 hours later were treated with compound for 2 hours and further incubated 70 hours. Compound starting dose was 20 μM and three fold serial dilutions were done for a total of ten points. After 2 hours of treatment, cells were spun down, the drug containing media was removed, and fresh complete medium was added and used to resuspend the cells, which were spun again. After removal of the wash media, the cells were resuspended in complete medium, then transferred into white walled, flat bottomed 96 well plates. […] Proliferation was measured using CellTiter Glo reagent using the standard protocol (Promega) and a Glomax multi+detection system (Promega). Percent proliferation inhibition was calculated using the following formula: % inhibition=(control−treatment)/control*100. Control is defined as vehicle alone. IC50 curves were generated using the nonlinear regression analysis (four parameter) with GraphPad Prism 6.

[2] = Rat pharmacokinetics of nanoparticle formulations of 1 and 2; assay type: in vivo; conditions: rats, 1 mg/kg IV bolus, plasma, dose normalized
Procedure: Nanoparticles are typically formulated for in vivo delivery in 10% sucrose and free drug formulations varied, but are typically dosed in 10% Solutol®/10% sucrose, or physiological saline. In this example conjugate 1 without nanoparticle formulation was dosed as a solution in 20% propyleneglycol/80% aqueous sucrose (10%).
(§1) For rat pharmacokinetic studies using nanoparticles as described herein, a 0.1 mg/mL solution was dosed at 10 mL/kg such that a 1 mg/kg IV bolus dose was introduced by tail vein injection into rats. Following compound administration, blood was collected at 0.083 hours, 0.25 hours, 0.5 hours, 1 hour, 2 hours, 4 hours, 8 hours, and 24 hours post dose into lithium heparin coated vacuum tubes. Tubes were inverted for 5 minutes and then placed on wet ice until centrifuged for 5 minutes at 4° C. at 6000 rpm. Plasma was harvested, frozen at −80° C. and shipped to for bioanalysis on dry ice.
50 uL of rat plasma was precipitated with 300 uL of DMF and the resulting supernatant was measured for compound content by LC-MS/MS electrospray ionization in the positive mode.
Representative dose normalized rat pharmacokinetic curves for conjugate 1 and nanoparticle formulations of conjugate 1 are shown in FIG. 3.
Representative dose normalized rat pharmacokinetic curves for conjugate 2 and nanoparticle formulations of conjugate 2 are shown in FIG. 4.

[3] = Solubility in aqueous media containing Tween 80; assay type: physicochemical; conditions: aqueous Tween 80
Excerpt: In certain formulations, conjugate 1′ was used without any changes to its native lipophilicity (free conjugate). […] The tendency of conjugate 1 to retain in the nanoparticle despite a high aqueous solubility in Tween/water could be due to the high lipophilicity of cabazitaxel and its compatibility/miscibility with the polymeric matrix. The presence of leucine, proline, tryptophan and tyrosine in the LHRH peptide may also assist in the interaction of the conjugate with the polymeric matrix.
In certain formulations, conjugate 1 was used without any changes to its native lipophilicity (free conjugate). […] Without committing to any particular theory, the tendency of conjugate 1 to retain in the nanoparticle despite a high aqueous solubility in Tween®/water could be due to the high lipophilicity of cabazitaxel and its compatibility/miscibility with the polymeric matrix. The presence of two phenylalanine amino acids in the octreotide peptide may also assist in the interaction of the conjugate with the polymeric matrix.
In some formulations, conjugate 2 was used without any changes to its native lipophilicity (free conjugate). […] The tendency of 2 to be retained in the nanoparticle was reduced compared to 1.

[4] = Rat pharmacokinetics of nanoparticle formulations of 1′; assay type: in vivo; conditions: rats, 1 mg/kg IV bolus, plasma, dose normalized, Table 3
Procedure: Nanoparticles described herein were typically formulated in 10% sucrose and free drug formulations were generally formulated typically dosed in 10% Solutol®/l 0% sucrose, or physiological saline.
as §1, with “For” for “For rat”, “studies,” for “studies using nanoparticles as described herein,”, “post-dose” for “post dose”
50 uL aliquots of rat plasma were precipitated with 300 uL of DMF and the resulting supernatant was measured for compound content by LC-MS/MS electrospray ionization in the positive mode.

[5] = Pharmacokinetics of cabazitaxel-RGD nanoparticles in rats; assay type: in vivo; conditions: rat, 1 mg/kg IV bolus, plasma
Procedure: Nanoparticles are typically formulated in 10% sucrose and free drug formulations varied, but are typically dosed in 10% SOLUTOL®/10% sucrose, or physiological saline.
as §1, with “PK studies,” for “rat pharmacokinetic studies using nanoparticles as described herein,”, “rats” for “rats.”, “h,” for “hours,”, “h,” for “hour,”, “h” for “hours”
50 uL of rat plasma were precipitated with 300 uL of DMF and the resulting supernatant was measured for compound content by LC-MS/MS electrospray ionization in the positive mode.

[6] = Tolerability in rat PK study of cabazitaxel-RGD nanoparticles; assay type: in vivo; conditions: rats, 1 mg/kg dose IV
Procedure: as §1, with “PK studies,” for “rat pharmacokinetic studies using nanoparticles as described herein,”, “rats” for “rats.”, “h,” for “hours,”, “h,” for “hour,”, “h” for “hours”

## CC[C@H](C)[C@@H]([C@@H](CC(=O)N1CCC[C@H]1[C@H](OC)[C@@H](C)C(=O)N[C@H](C)[C@@H](O)c1ccccc1)OC)N(C)C(=O)[C@@H](NC(=O)[C@H](C(C)C)N(C)C(=O)OCc1ccc(NC(=O)[C@H](CCCNC(N)=O)NC(=O)[C@@H](NC(=O)CCCCCN2C(=O)CC(SCCC(=O)N[C@H](Cc3ccccc3)C(=O)N[C@H]3CSSC[C@@H](C(=O)N[C@H](CO)[C@@H](C)O)NC(=O)[C@H]([C@@H](C)O)NC(=O)[C@H](CCCCN)NC(=O)[C@@H](Cc4c[nH]c5ccccc45)NC(=O)[C@H](Cc4ccccc4)NC3=O)C2=O)C(C)C)cc1)C(C)C (stereo partly drawn) [Conjugate 5]
[1]
  IC50: 433 nM

## COc1cc2cc(c1Cl)N(C)C(=O)C[C@H](OC(=O)[C@H](C)N(C)C(=O)CCSSCCC(=O)N[C@H](Cc1ccccc1)C(=O)N[C@H]1CSSC[C@@H](C(=O)N[C@H](CO)[C@@H](C)O)NC(=O)[C@H]([C@@H](C)O)NC(=O)[C@H](CCCCN)NC(=O)[C@@H](Cc3c[nH]c4ccccc34)NC(=O)[C@H](Cc3ccccc3)NC1=O)[C@]1(C)O[C@H]1[C@H](C)[C@@H]1C[C@@](O)(NC(=O)O1)[C@H](OC)/C=C/C=C(\C)C2 [Conjugate 4]
[1]
  IC50: 229 nM

## COc1cccc2c1C(=O)c1c(O)c3c(c(O)c1C2=O)C[C@@](O)(C(=O)COC(=O)CCCC(=O)N[C@H](Cc1ccccc1)C(=O)N[C@H]1CSSC[C@@H](C(=O)N[C@H](CO)[C@@H](C)O)NC(=O)[C@H]([C@@H](C)O)NC(=O)[C@H](CCCCN)NC(=O)[C@@H](Cc2c[nH]c4ccccc24)NC(=O)[C@H](Cc2ccccc2)NC1=O)C[C@@H]3O[C@H]1C[C@H](N)[C@H](O)[C@H](C)O1 [Example 2]
[2]; conjugate 2 and its nanoparticles, Table 12
  AUC(0-inf): 14.3 µM·h

## CCCCN(CCSSCCC(=O)N[C@H](Cc1ccccc1)C(=O)N[C@H]1CSSC[C@@H](C(=O)N[C@H](CO)[C@@H](C)O)NC(=O)[C@H]([C@@H](C)O)NC(=O)[C@H](CCCCN)NC(=O)[C@@H](Cc2c[nH]c3ccccc23)NC(=O)[C@H](Cc2ccccc2)NC1=O)C(=O)O[C@@H](C(=O)O[C@H]1C[C@@]2(O)[C@@H](OC(=O)c3ccccc3)[C@@H]3[C@]4(OC(C)=O)CO[C@@H]4C[C@H](OC)[C@@]3(C)C(=O)[C@H](OC)C(=C1C)C2(C)C)[C@@H](NC(=O)OC(C)(C)C)c1ccccc1 [Conjugate 3]
[1]
  IC50: > 20000 nM

## CO[C@H]1C(=O)[C@]2(C)[C@@H](OC)C[C@H]3OC[C@@]3(OC(C)=O)[C@H]2[C@H](OC(=O)c2ccccc2)[C@]2(O)C[C@H](OC(=O)[C@H](OC(=O)OCCSSCCC(=O)N[C@H](Cc3ccccc3)C(=O)N[C@H]3CSSC[C@@H](C(=O)N[C@H](CO)[C@@H](C)O)NC(=O)[C@H]([C@@H](C)O)NC(=O)[C@H](CCCCN)NC(=O)[C@@H](Cc4c[nH]c5ccccc45)NC(=O)[C@H](Cc4ccccc4)NC3=O)[C@@H](NC(=O)OC(C)(C)C)c3ccccc3)C(C)=C1C2(C)C [Conjugate 1]
[3]
  solubility: > 7000 µg/mL
  solubility in aqueous media containing surfactant: high solubility
[1]
  IC50: 110 nM
[2]; conjugate 1 and its nanoparticles, Table 11
  AUC(0-inf): 18.3 µM·h
[4]
  AUC(0-inf): 2.19 µM·h

## C[C@@H](O)[C@@H]1NC(=O)[C@H](CCCCN)NC(=O)[C@@H](Cc2c[nH]c3ccccc23)NC(=O)[C@H](Cc2ccccc2)NC(=O)[C@@H](NC(=O)[C@H](N)Cc2ccccc2)CSSC[C@@H](C(=O)N[C@H](CO)[C@@H](C)O)NC1=O [Octreotide, reference compound]
[1]; octreotide alone
  effect on cell proliferation: no significant effect

## COc1cc2cc(c1Cl)N(C)C(=O)[C@H](OC(=O)[C@H](C)N(C)C(=O)CCSSC[C@H](N)C(=O)N[C@@H](CCCCN)C(=O)N[C@@H](CCCCN)C(=O)N[C@@H](CCCCN)C(=O)N[C@@H](CCCCN)C(=O)N[C@H](Cc1ccccc1)C(=O)N[C@H]1CSSC[C@@H](C(=O)N[C@H](CO)[C@@H](C)O)NC(=O)[C@H]([C@@H](C)O)NC(=O)[C@H](CCCCN)NC(=O)[C@@H](Cc3c[nH]c4ccccc34)NC(=O)[C@H](Cc3ccccc3)NC1=O)[C@]1(C)O[C@H]1[C@H](C)[C@@H]1C[C@@](O)(NC(=O)O1)[C@H](OC)/C=C/C=C(\C)C2 [Conjugate 7] (H-C(X1)KKKK[dF]CF[dW]KTC[Thr(ol)]; disulfide 7-12)
[1]
  IC50: 955 nM

## COc1cc2cc(c1Cl)N(C)C(=O)C[C@H](OC(=O)[C@H](C)N(C)C(=O)CCSSCCC(=O)NCCOCCOCCOCCOCCOCCOCCOCCOCCC(=O)N[C@H](Cc1ccccc1)C(=O)N[C@H]1CSSC[C@@H](C(=O)N[C@H](CO)[C@@H](C)O)NC(=O)[C@H]([C@@H](C)O)NC(=O)[C@H](CCCCN)NC(=O)[C@@H](Cc3c[nH]c4ccccc34)NC(=O)[C@H](Cc3ccccc3)NC1=O)[C@]1(C)O[C@H]1[C@H](C)[C@@H]1C[C@@](O)(NC(=O)O1)[C@H](OC)/C=C/C=C(\C)C2 [Conjugate 6]
[1]
  IC50: 234 nM

## CCCCN(CCSSC[C@@H]1NC(=O)[C@@H](Cc2ccccc2)NC(=O)[C@H](CC(=O)O)NC(=O)CNC(=O)[C@H](CCCNC(=N)N)NC1=O)C(=O)O[C@@H](C(=O)OC1C[C@@]2(O)[C@@H](OC(=O)c3ccccc3)[C@@H]3[C@]4(OC(C)=O)CO[C@@H]4C[C@H](OC)[C@@]3(C)C(=O)[C@H](OC)C(=C1C)C2(C)C)[C@@H](NC(=O)OC(C)(C)C)c1ccccc1 (stereo partly drawn) [BT-568]
[5]
  AUC: 5.3 µM·h
[6]
  tolerability observations post dose: lethargy and labored breathing were observed immediately post dose in all three rats
[6]; three rats
  mortality: one of the three animals died
